Laboratory results from the supplement of paper PMC10724198.
± gives the standard deviation of the averaged measurements.

Test system: Saccharomyces cerevisiae
Experiment: protein stability index of tFT-peptide fusion (C-terminal peptide) (PSI (0-1 scale)); higher = more stable (slower turnover)
Details: genetic background: wild type; temperature: 30 C
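Also: PSI is a weighted mean of sequencing reads over stability bins, variants kept only with over 10 reads, mCherry proximal and sfGFP distal, peptide attached via GGGS linker.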

| Sequence | protein stability index |
| --- | --- |
| WYIEYLNYTTEQ | 0.697 ± 0.0089 |
| LSAVRFGRVWGG | 0.6959 ± 0.0043 |
| TYNVVKSMVDNK | 0.672 ± 0.026 |
| RPSTRARPKPTP | 0.693 ± 0.0086 |
| PFRSPSLPYFRL | 0.712 ± 0.018 |
| TACIVGLRLMRL | 0.787 ± 0.063 |
| GSNRLYRGVTIT | 0.627 ± 0.0082 |
| RCCLDLLIFPCS | 0.735 ± 0.15 |
| FACLGPLRRRLG | 0.682 ± 0.012 |
| PSNNHRPPGCAD | 0.685 ± 0.023 |
| WVGGGRAKAKRE | 0.696 ± 0.054 |
| WGCCRPERNCAV | 0.702 ± 0.02 |
| GWSWGGVRTGSC | 0.841 ± 0.092 |
| ISRFSLTFPFHR | 0.6947 ± 0.0039 |
| GGLRRMGVRPCA | 0.715 ± 0.21 |
| QGGGGGGVCGMV | 0.721 ± 0.011 |
| PPPLPSPPRPPS | 0.734 ± 0.045 |
| CFCDDRPSLRRV | 0.729 ± 0.019 |
| NCFIPPARVFPS | 0.686 ± 0.028 |
| NSRDCILQARET | 0.713 ± 0.012 |
| PRGVLSCPVFAP | 0.776 ± 0.029 |
| GAAGGRGRGTAW | 0.619 ± 0.15 |
| VRTLGPLRPEGL | 0.74 ± 0.068 |
| HLFSLGSCLSDP | 0.731 ± 0.12 |
| LFYFDTWFFPPP | 0.762 ± 0.097 |

| Sequence | protein stability index |
| --- | --- |
| PSPPLPRPLSPP | 0.72 ± 0.045 |
| GDIILSFFNFSK | 0.666 ± 0.024 |
| VSGGRLVGWGGW | 0.731 ± 0.12 |
| KGDKIEFVENKY | 0.641 ± 0.022 |
| FRAAGFLAGRYR | 0.738 ± 0.039 |
| GFLVNNCLGFLW | 0.782 ± 0.051 |
| LGVVCVGWLGGL | 0.664 ± 0.03 |
| WRRCSGVGVGSP | 0.663 ± 0.072 |
| PPRYDSLFGALF | 0.676 ± 0.066 |
| LPPPFPSPPRPP | 0.617 ± 0.14 |
| CHMSLDGPLLGF | 0.728 ± 0.2 |
| AGGGGGDAGRGV | 0.744 ± 0.078 |
| TSYEAKKKWQVI | 0.645 ± 0.025 |
| EPAAGFAICRHH | 0.67 ± 0.02 |
| RGVCVVGGCWLV | 0.609 ± 0.016 |
| SEGRMHGLFLLN | 0.544 ± 0.022 |
| AWCLGVGESRPH | 0.739 ± 0.035 |
| RSHPPPPVSRSP | 0.651 ± 0.045 |
| FPTSPPLIALLD | 0.6692 ± 0.0029 |
| ALLLSHFLFFYA | 0.524 ± 0.028 |
| TSPQHPWPPAPL | 0.694 ± 0.06 |
| AAISGELRVWVL | 0.642 ± 0.0081 |
| GRGGTYVVLWGV | 0.661 ± 0.1 |
| WFFVADVFKSWL | 0.704 ± 0.039 |
| TRGRGLSGGRFF | 0.658 ± 0.037 |

| Sequence | protein stability index |
| --- | --- |
| PPPPPAPPPTPL | 0.556 ± 0.011 |
| ISPCCGVPWLLR | 0.708 ± 0.025 |
| NIIADTHARRRF | 0.748 ± 0.11 |
| VWDQTKKKKIKK | 0.704 ± 0.014 |
| GGCEWWSGGRGG | 0.733 ± 0.026 |
| LAALVGGNRGRG | 0.704 ± 0.081 |
| REPPFFRLSPQV | 0.722 ± 0.042 |
| ANSRPASSTRLR | 0.857 ± 0.2 |
| SGRIYLVGLRYI | 0.538 ± 0.0068 |
| GVGWGSRGVCLG | 0.659 ± 0.095 |
| PPLLPPVSPPPP | 0.684 ± 0.061 |
| PPPPPPRPPLRP | 0.727 ± 0.012 |
| QSPPDDRPPPHP | 0.676 ± 0.029 |
| SSYGPAKSLGCA | 0.684 ± 0.023 |
| MSGRGPYPYSPL | 0.7465 ± 0.0034 |
| GQGACWLCVGGR | 0.685 ± 0.02 |
| PDVPVTCYAASH | 0.661 ± 0.067 |
| KKGYKTVETRIS | 0.69 ± 0.082 |
| PGAFLRLSPPRA | 0.7019 ± 0.0013 |
| SNLHCLQRGYSV | 0.725 ± 0.011 |
| CTYHLPFYNVLF | 0.849 ± 0.19 |
| FFPPPPPATPPA | 0.663 ± 0.072 |
| QKAQLISQVNTG | 0.6682 ± 0.0065 |
